Experiments:
[1] = system: T1, Pyr-AAI
T1 sequence: AAI

[2] = system: Pyr-PAIVK
[3] = system: Pyr-DAIVK
[4] = system: T2, Pyr-APVLA
T2 sequence: APVLA

[5] = system: Pyr-AAIVK
[6] = system: Pyr-NAIVK
[7] = system: lactocin S
[8] = system: T3, OBu-AGPAIR
T3 sequence: AGPAIR

[9] = system: T4, Pyr-A
T4 sequence: A

[10] = system: T5, Pyr-AAAVK
T5 sequence: AAAVK

[11] = system: Pyr-RAIVK
[12] = system: Pyr-AAIAK
[13] = system: Pyr-KAIVK
[14] = system: T6, Pyr-LGPAIK
T6 sequence: LGPAIK

[15] = system: Pyr-AAIVA
[16] = system: T7, Pyr-AA
T7 sequence: AA

[17] = system: Pyr-AAIVKBBIKAAKK
[18] = system: Glx-AAIVK
[19] = system: Obu-RAIVK
[20] = system: T8, Pyr-AAIV
T8 sequence: AAIV

[21] = system: Obu-AAIVK
[22] = system: Pyr-MAIVK
[23] = system: Pyr-AAVLK
[24] = system: Pyr-BPVLAAVAVAKKK
[25] = system: CylA; test: CylA self-cleavage (SDS-PAGE, MALDI-TOF MS); format: biochemical, Enterococcus faecalis
Experimental: E. coli BL21 (DE3) cells were transformed with pRSFDuet-1/CylA-27-412, pRSFDuet-1/CylA-27-412-E95A, pRSFDuet-1/CylA-27-412-S359A or pRSFDuet-1/LicP-25-433 vectors and plated on an LB plate containing 50 mg/L kanamycin. A single colony was picked and grown in 20 mL of LB with kanamycin at 37° C. for 12 h and the resulting culture was inoculated into 2 L of LB. Cells were cultured at 37° C. until the OD at 600 nm reached 0.5, cooled and IPTG was added to a final concentration of 0.1 mM. The cells were cultured at 18° C. for another 10 h before harvesting. The cell pellet was resuspended on ice in LanP start buffer (20 mM HEPES, 1 M NaCl, pH 7.5 at 25° C.) and lysed by homogenization. The lysed sample was centrifuged at 23,700×g for 30 min and the pellet was discarded. The supernatant was passed through 0.45-μm syringe filters and the protein was purified by immobilized metal affinity chromatography (IMAC) loaded with nickel as described in B. Li et al. Methods Enzymol. 2009, 458, 533. […] Protein concentration was quantified by its absorbance at 280 nm. The extinction coefficient for His6-CylA-27-412, His6-CylA-27-412-E95A and His6-CylA-27-412-S359A was calculated as 30,830 M^−1 cm^−1. The extinction coefficient for His6-LicP-25-433 was calculated as 46,300 M^−1 cm^−1. […]

[26] = biological target: modified CylLS
[27] = system: modified CylLS; test: Kinetic analysis of full length CylA and CylA-96-412 against modified CylLS (LC/MS); format: biochemical, Enterococcus faecalis
Experimental: Targeted peptides were dissolved in H2O to a final concentration of 3 mg/mL. To a 85 μL solution of peptides, 10 μL of 500 mM HEPES buffer (pH 7.5) was added followed by 5 μL of 0.5 mg/mL AspN protease (for modified CylLL and CylLS peptides), 0.1 mg/mL CylA protease (for modified and unmodified CylLL, CylLS peptides, and modified HalA2-GDVQAE peptide) or 0.1 mg/mL LicP protease (for LicA2). For cleavage tests of the engineered GDVQAE peptides, CylA was added to a final concentration of 0.01 mg/mL, whereas the peptide was added to a concentration of 0.3 mg/mL with 50 mM HEPES buffer (pH 7.5). The protease cleavage reaction mixtures were kept at 25° C. for 1 to 48 h. Osmotic pressure was adjusted with NaCl solution with a final concentration of 150 mM. The digested peptide mixture was directly used for antimicrobial and hemolytic assay. For the kinetic analysis of CylA and its mutant proteins, His6-CylA-27-412 and His6-CylA-27-412-E95A proteins were added to a final concentration of 500 ng/mL and 2.5 μg/mL (22 nM and 110 nM), respectively, with modified CylLS supplied at a concentration of 0.3 mg/mL (36 μM). The reactions were allowed to proceed at room temperature and were stopped by 1% TFA at different time points for LC/MS analysis. Halα and Halβ were obtained by factor Xa cleavage of modified HalA1Xa and HalA2 Xa peptides using the procedure of Y. Shi, et al. J. Am. Chem. Soc. 2011, 133, 2338. CylLL″ and CylLS″ were prepared in the same way using modified CylLL-E-1K and CylLS-E-1K peptides as described in W. Tang and W. A. van der Donk, Nat. Chem. Biol. 2013, 9, 157.
As full length CylA is not available due to its self-cleavage, His6-CylA-27-412-E95A was chosen to serve as a substituent of full length CylA as the self-cleavage was abolished whereas the conserved catalytic C-terminal region of CylA remained unchanged. To obtain the mature protease CylA-96-412, His6-CylA-27-412 was aged at 4° C. for 12 hours to allow the self-cleavage to proceed until CylA-96-412 was the dominant peak monitored by MALDI-TOF MS. The aged protein mixture was directly used as a substituent of CylA-96-412. To test the proteases' activities, CylA-96-412 and His6-CylA-27-412-E95A were supplied with a final concentration of 22 nM and 110 nM, respectively, with modified CylLS served at a concentration of 36 μM. The reactions were stopped at 3 minute, 6 minute, 12 minute and 24 minute by 1% TFA and the formation of mature CylLS″ was monitored by liquid chromatography MS (LC/MS). […] The production of core peptide was analyzed by extracted ion chromatography monitoring the desired product mass 1017 (M+2H^+).

[28] = biological target: T9, LanA3 encoded by the genome of B. cereus VD156
T9 chain: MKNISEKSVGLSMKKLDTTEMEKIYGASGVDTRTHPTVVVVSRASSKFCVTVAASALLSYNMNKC

[29] = biological target: dehydrated and cyclized LanA2 from B. licheniformis 9945A

Work on His6-ElxO yielded a Relative (kcat/Km) [1] of 0.02, a kcat/Km (reduction by His6-ElxO, NADPH absorbance at 340 nm) [1] of 0.06 M⁻¹ s⁻¹ and a Relative (kcat/Km) [2] of 0.05. The kcat/Km (reduction by His6-ElxO, NADPH absorbance at 340 nm) [2] was 0.13 M⁻¹ s⁻¹, the Relative (kcat/Km) [3] was 0.12 and the kcat/Km (reduction by His6-ElxO, NADPH absorbance at 340 nm) [3] was 0.29 M⁻¹ s⁻¹. For the same molecule, the “reduction by His6-ElxO with NADPH, LC-MS” value [4] was “All the peptides were reduced as confirmed by LC-MS analysis”, the Relative (kcat/Km) [5] was 1 and the kcat/Km (reduction by His6-ElxO, NADPH absorbance at 340 nm) [5] was 2.43 M⁻¹ s⁻¹. The Relative (kcat/Km) [6] was 3.13, the kcat/Km (reduction by His6-ElxO, NADPH absorbance at 340 nm) [6] was 7.6 M⁻¹ s⁻¹ and the “reduction by His6-ElxO with NADPH, high-resolution LC-MS” value [7] was “confirming the formation of dihydrolactocin S”. The “reduction by His6-ElxO with NADPH, LC-MS” value [8] was “All the peptides were reduced as confirmed by LC-MS analysis”, the Relative (kcat/Km) [9] was < 0.01 and the kcat/Km (reduction by His6-ElxO, NADPH absorbance at 340 nm) [9] was < 0.03 M⁻¹ s⁻¹. For the same molecule, the Relative (kcat/Km) [10] was 0.12, the kcat/Km (reduction by His6-ElxO, NADPH absorbance at 340 nm) [10] was 0.29 M⁻¹ s⁻¹ and the Relative (kcat/Km) [11] was 2.26. The kcat/Km (reduction by His6-ElxO, NADPH absorbance at 340 nm) [11] was 5.5 M⁻¹ s⁻¹, the Relative (kcat/Km) [12] was 0.65 and the kcat/Km (reduction by His6-ElxO, NADPH absorbance at 340 nm) [12] was 1.59 M⁻¹ s⁻¹. For the same molecule, the Relative (kcat/Km) [13] was 1.74, the kcat/Km (reduction by His6-ElxO, NADPH absorbance at 340 nm) [13] was 4.22 M⁻¹ s⁻¹ and the “reduction by His6-ElxO with NADPH” value [14] was “His6-ElxO reduced both peptides”. The Relative (kcat/Km) [15] was 0.55, the kcat/Km (reduction by His6-ElxO, NADPH absorbance at 340 nm) [15] was 1.33 M⁻¹ s⁻¹ and the Relative (kcat/Km) [16] was < 0.01. The kcat/Km (reduction by His6-ElxO, NADPH absorbance at 340 nm) [16] was < 0.03 M⁻¹ s⁻¹, the Relative (kcat/Km) [17] was 5.83 and the kcat/Km (reduction by His6-ElxO, NADPH absorbance at 340 nm) [17] was 14.2 M⁻¹ s⁻¹. For the same molecule, the Relative (kcat/Km) [18] was < 0.01, the kcat/Km (reduction by His6-ElxO, NADPH absorbance at 340 nm) [18] was < 0.03 M⁻¹ s⁻¹ and the Relative (kcat/Km) [19] was 0.62. The kcat/Km (reduction by His6-ElxO, NADPH absorbance at 340 nm) [19] was 1.51 M⁻¹ s⁻¹, the Relative (kcat/Km) [20] was 0.47 and the kcat/Km (reduction by His6-ElxO, NADPH absorbance at 340 nm) [20] was 1.13 M⁻¹ s⁻¹. The Relative (kcat/Km) [21] was 0.38, the kcat/Km (reduction by His6-ElxO, NADPH absorbance at 340 nm) [21] was 0.92 M⁻¹ s⁻¹ and the Relative (kcat/Km) [22] was 6.4. For the same molecule, the kcat/Km (reduction by His6-ElxO, NADPH absorbance at 340 nm) [22] was 15.5 M⁻¹ s⁻¹, the “reduction by His6-ElxO with NADPH” value [23] was “His6-ElxO reduced both peptides” and the “reduction by His6-ElxO with NADPH, LC-MS” value [24] was “All the peptides were reduced as confirmed by LC-MS analysis”.

B1: His6-CylA-27-412-E95A (protein)
chain: MKRIYIFLLCFAVLLPVGGKTAQAKEQAGEQYLLLEHVKDKSKLLDTAEQFHIHADVIEEIGFAKVTGEKQKLAPFTKKLAEKVGADVIEKPIANTAVNETESVISGSPAWGLDGILELKEYLWFAAKQTDSYRTYQIERGHPDVKVALIDSGLDLDHPDLKASVNTNGGWNYIDGKPVSGDPTGHGTQTAGMINIIAPDVTITPYQVLDEKGGDSYNIMKAMVDAVNDGHEVINISTGSYTSLDREGKVLMKAYQRAANYAAKHQVLVFSSAGNKGVNLDEMRKTENKVHLPSALKHVVSVGSNMKSNNISPYSNQGREIEFTAPGGYLGETYDQDGMVRVTDLVLTTYPKGKDNTALDQMLNIPKGYSLSYGTSLAAPQVAGTAALVISEYRERHHRKPSAKQVHHILRKSALDLGKPGKDVIYGYGEVRAYQALKMMNKE
In the case of B1, the “CylA self-cleavage during expression or purification” value [25] is reported as “only one band corresponding to the full length protein”, the “cleavage by His6-CylA-27-412-E95A” value [26] is reported as “Incubation of modified CylLS with His6-CylA-27-412-E95A resulted in cleavage” and the “fold lower rate of producing CylLS″ than CylA-96-412 (LC/MS; 110 nM enzyme, 36 µM substrate)” value [26] is reported as “exhibited an approximate 10-fold lower rate of producing CylLS″”. The “cleavage of modified CylLS” value [27] was “resulted in cleavage” and the “lower rate of producing CylLS″” value ([27]; enzyme 110 nM, modified CylLS 36 μM, versus CylA-96-412) was ~10 fold.

B2: LanP of B. cereus VD156 (without signal sequence, with His6 tag) (protein)
chain: MGSSHHHHHHSQDPTQIAYYSILIRDNTDFNTVLDKLSKDNQEVVYSIPEVNLIQVKGEKGKIISGIGLESIEEINPSTGEFKTYTPNINDQKVLDNKAIWDVQWDIKRITNNGESYKLHSPSGKVSVALIDSGYPENHPDIKSISIQKSKNLVPKGGYKGNEENETGNIHQLTDRTGHGTSVLSQVNADGLMKGVAPGMPVNMYRVFGESSAEGSWIIKGIIEAAKDKNDVINISAGSYLLKNGTYSDGSGNNRAEIKAYEKAIHYANKKGSIVVSALGNDSININIYSELLSILNSKIKDEGKSATGIVQDIPAQLAQVVSVASTGMDSKVSSFSNYGKNIIDFTAPGGDIKLLNKFGADVWMAEEMFKKEMILVAHPQGGYYFNYGNSLATPKVSGALALVIDKYGYKNKPNKAINHLKRNTNAENEIDLYKALQE
In the case of B2, the “cleavage by the corresponding LanP, MALDI-TOF MS” value [28] is reported as “the core peptide is detected ... and the leader peptide is also observed”.

B3: LanP from B. licheniformis 9945A (without signal sequence, with His6 tag) (protein)
chain: MGSSHHHHHHSQDPDRYTIYLESPAHHDDWVKTLNERNIKLVYSVEEIGLYQIEGRQKEVQELAAEINYINSHNQSVAMQPASLHNTAPAEATIFGGTPTLWDDFQWDMRKATNNGQTYQITEGSKNTIVGIIDSGIDMNHPDLKENILSVRNFVPKGGLRGQEPYEKGDINDSTDYLGHGTFVAGQIAANGLMKGIAPETGIRSYRVFGGKSADTVWIIDAIIQAAIDDVDIINVSFGTFLVKQNRKNKQMPDTNDLAEIKAFKKAVSFAHKKGSAVVASIGNEGLDLKDKNAVFEYWRSTKQEDLSADGKVILIPAQLPNVVTVSSIGPSGMRSVFSNYGKNVVDIAADGGDLRLLNEVGEDRYYGEGLFRQEYILGAAPGVTYTFSIGTSIAAPKVSGALALLIDQKQLHDKPDKAVKILLKNADRNADKIDTGAGVLNVYRALTD
For B3, the “cleavage by the corresponding LanP, MALDI-TOF MS” value [29] was “fully modified core peptide is observed after protease treatment (inset) ... the leader peptide is also observed”.
